Test results published in US20250051465A1 (published 2025).

B1: H4H16650P2 (antibody, human IgG4, V domains shown)
VH: QVQLVESGGGVVQPGKSLRLSCVASGFTFSSDAMYWVRQAPGKGLEWVAVIYYDGNYQYYEDSVKGRFTISRDNSQNTLDLQMNSLRVDDTAVYFCARLNWDYWYLDLWGRGTLVTVSS
VL: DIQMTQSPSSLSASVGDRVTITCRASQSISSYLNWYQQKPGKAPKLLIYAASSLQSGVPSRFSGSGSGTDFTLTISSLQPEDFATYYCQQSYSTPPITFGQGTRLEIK
notes: Fully human antibody with human IgG4 Fc (H4H prefix)
B2: H4H17319P2 (antibody, human IgG4, V domains shown)
VH: QVQLVESGGSVVQPGRSLRLSCAASGFTFSTYAMYWVRQTPGKGLEWVAVLYSDGSNKYYIDSVKGRFTISRDTSTNTLYLQMSSLRADDSALYYCARLNWDYWYFDLWGRGTLVTVSS
VL: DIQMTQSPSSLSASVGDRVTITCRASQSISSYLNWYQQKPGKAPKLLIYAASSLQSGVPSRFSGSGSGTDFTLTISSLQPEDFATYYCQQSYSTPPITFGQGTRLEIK
notes: as for B1
B3: H4H16679P2 (antibody, human IgG4, V domains shown)
VH: QVQLVESGGGVVQPGRSLRLSCTASGFTFSSYAMYWVRQAPGKGLEWVSVIYYDGSYKYYADSVKGRFTISRDNSKNTLYLQMDSLRAEDTAVYYCASYNWNYWYFDFWGRGTLVTVSS
VL: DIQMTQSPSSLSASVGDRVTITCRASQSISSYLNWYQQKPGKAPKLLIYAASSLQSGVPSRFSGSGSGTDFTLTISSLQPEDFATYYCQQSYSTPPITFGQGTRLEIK
notes: as for B1

Molecular target: T1, preformed complex of hLEPR-MMH and human Leptin (human, UniProt P41159 22-167)
T1 construct: also called hLEPR-MMH: human Leptin complex; Leptn;LEPR
T1 sequence (P41159 22-167 limits assumed, one chain of several): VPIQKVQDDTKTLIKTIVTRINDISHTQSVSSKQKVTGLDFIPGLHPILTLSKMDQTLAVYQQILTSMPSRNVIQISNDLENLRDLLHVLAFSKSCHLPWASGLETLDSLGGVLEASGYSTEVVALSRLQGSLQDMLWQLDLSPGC
Experiment: SPR, mAb over preformed hLEPR-MMH:Leptin complex, 25C
Protocol: The entire study was performed in 10 mM HEPES pH 7.4, 150 mM NaCl, 3 mM EDTA, and 0.05% v/v Surfactant Tween-20 (HBS-ET running buffer) at 25° C.

Row | Binder | 200 nM mAb Bound (RU)
1 | B1 | 81 RU
2 | B2 | 92 RU
3 | B3 | 90 RU
